The labels stand for the following.
B1: 245 (protein)
chain: MTTRTRILTAFLSLLAANACAADAAPAAPHTVVLRAARMFDGASGKLVDHPQLTIVGNKIVRIAQGDKAEVPAGAEVVDLGDATLLPGFIDAHVHLSGQSSDNWYGDFFDNMMRFPAEQALYGAYYARITLEAGFTSVRDVGSTDWVALGLRNAIDAGKVPGPRMLVSNYAVGSTGGHADQDPIPPHKLPLAGPLQGVCNGPEECRAAVRYQIKYGANVIKFMPSGGVLSLSDPVDAPELSQDEMNAVIGESHAWGRKVAAHAHGDKAAKMAVAAGVDSIEHGSFIEDDTLRAMKAKNVYLVPTISAIAHVEEKIGTFPPVIAEKGRAAAAHLRQTFRKAVQIGVPIALGTDAGVGAHGSNAREFRYMVENGLTPAQALLAGTANAARLLGTFDRVGTLEAGKLADVVAVPGNPIADITVTERPLFVMKDGVVVRRDAVR
modifications: exemplary polypeptide
B2: 274 (protein)
chain: B1 chain with Q119K, K339H
modifications: exemplary polypeptide
B3: 286 (protein)
chain: B1 chain with L231E, V321T, K339H
modifications: exemplary polypeptide
B4: 259 (protein)
chain: B1 chain with H310D, E313A, K339H
modifications: exemplary polypeptide
B5: 281 (protein)
chain: B1 chain with L231F, K339H
modifications: exemplary polypeptide
B6: 273 (protein)
chain: B1 chain with Q119H, K339H
modifications: exemplary polypeptide
B7: 275 (protein)
chain: B1 chain with Q119M, K339H
modifications: exemplary polypeptide
B8: 268 (protein)
chain: B1 chain with M112F, K339H
modifications: exemplary polypeptide
B9: 287 (protein)
chain: B1 chain with L229I, I308A, K339H
modifications: exemplary polypeptide
B10: 280 (protein)
chain: B1 chain with V198T, K339H
modifications: exemplary polypeptide
B11: 246 (protein)
chain: B1 chain with K339N
modifications: exemplary polypeptide
B12: 262 (protein)
chain: B1 chain with G98V, K339H
modifications: exemplary polypeptide
B13: 272 (protein)
chain: B1 chain with Q119E, K339H
modifications: exemplary polypeptide
B14: 288 (protein)
chain: B1 chain with I308A, A329V, K339H
modifications: exemplary polypeptide
B15: 284 (protein)
chain: B1 chain with V235F, K339H
modifications: exemplary polypeptide
B16: 260 (protein)
chain: B1 chain with H310E, E313A, K339H
modifications: exemplary polypeptide
B17: 248 (protein)
chain: B1 chain with K339H, A353S
modifications: exemplary polypeptide
B18: 253 (protein)
chain: B1 chain with K339H, N361Q
modifications: exemplary polypeptide
B19: 285 (protein)
chain: B1 chain with V235L, K339H
modifications: exemplary polypeptide
B20: 256 (protein)
chain: B1 chain with H187N, K188R, K339H
modifications: exemplary polypeptide
B21: 247 (protein)
chain: B1 chain with K339S
modifications: exemplary polypeptide
B22: 261 (protein)
chain: B1 chain with G98S, K339H
modifications: exemplary polypeptide
B23: 282 (protein)
chain: B1 chain with V235A, K339H
modifications: exemplary polypeptide

Where a chain is given by its changes, count along the chain named.

One series is described as follows: OTA detoxification activity assay (specific activity, fluorescence reduction ex/em 390/450 nm). It is filed as biochemical. Particulars: pH 6.0; SEQ ID NO: 1 = 100%. The gist of the method: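 Recombinant enzyme preparation with 200 ng/mL OTA in 100 mM sodium phosphate, at pH 6.0 and pH 7.5, 37° C. Degradation followed as the fall in fluorescence at ex/em 390/450 nm. Specific activity taken from the initial linear slope; one unit degrades 1 μmol OTA per min at a starting OTA of […].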
In the case of B1, the “Specific OTA detoxification activities in % compared to the enzyme of SEQ ID NO: 1, pH 6.0” value amounted to 62%.

Regarding B2, the “Specific OTA detoxification activities in % compared to the enzyme of SEQ ID NO: 1, pH 6.0” value amounted to 100%.

Consider B3, for which the “Specific OTA detoxification activities in % compared to the enzyme of SEQ ID NO: 1, pH 6.0” value worked out at 39%.

B4: the “Specific OTA detoxification activities in % compared to the enzyme of SEQ ID NO: 1, pH 6.0” value amounted to 56%.

As to B5, the “Specific OTA detoxification activities in % compared to the enzyme of SEQ ID NO: 1, pH 6.0” value worked out at 90%.

On to B6, for which the “Specific OTA detoxification activities in % compared to the enzyme of SEQ ID NO: 1, pH 6.0” value was 134%.

For B7, the “Specific OTA detoxification activities in % compared to the enzyme of SEQ ID NO: 1, pH 6.0” value amounted to 71%.

Take B8: the “Specific OTA detoxification activities in % compared to the enzyme of SEQ ID NO: 1, pH 6.0” value worked out at 25%.

In the case of B9, the “Specific OTA detoxification activities in % compared to the enzyme of SEQ ID NO: 1, pH 6.0” value is 151%.

Take B10: the “Specific OTA detoxification activities in % compared to the enzyme of SEQ ID NO: 1, pH 6.0” value came to 70%.

Turning to B11, the “Specific OTA detoxification activities in % compared to the enzyme of SEQ ID NO: 1, pH 6.0” value is recorded as 113%.

Consider B12, for which the “Specific OTA detoxification activities in % compared to the enzyme of SEQ ID NO: 1, pH 6.0” value was found to be 116%.

As for B13, the “Specific OTA detoxification activities in % compared to the enzyme of SEQ ID NO: 1, pH 6.0” value is listed as 121%.

As for B14, the “Specific OTA detoxification activities in % compared to the enzyme of SEQ ID NO: 1, pH 6.0” value is listed as 29%.

As to B15, the “Specific OTA detoxification activities in % compared to the enzyme of SEQ ID NO: 1, pH 6.0” value stood at 48%.

Consider B16, for which the “Specific OTA detoxification activities in % compared to the enzyme of SEQ ID NO: 1, pH 6.0” value was found to be 83%.

As to B17, the “Specific OTA detoxification activities in % compared to the enzyme of SEQ ID NO: 1, pH 6.0” value turned out to be 131%.

For the molecule B18, the “Specific OTA detoxification activities in % compared to the enzyme of SEQ ID NO: 1, pH 6.0” value is 93%.

With B19, the “Specific OTA detoxification activities in % compared to the enzyme of SEQ ID NO: 1, pH 6.0” value is 28%.

With B20, the “Specific OTA detoxification activities in % compared to the enzyme of SEQ ID NO: 1, pH 6.0” value came to 116%.

Take B21: the “Specific OTA detoxification activities in % compared to the enzyme of SEQ ID NO: 1, pH 6.0” value is 80%.

On to B22, for which the “Specific OTA detoxification activities in % compared to the enzyme of SEQ ID NO: 1, pH 6.0” value was found to be 78%.

In the case of B23, the “Specific OTA detoxification activities in % compared to the enzyme of SEQ ID NO: 1, pH 6.0” value was determined as 77%.

Still in this series, the particulars now being: pH 7.5; SEQ ID NO: 1 = 100%.
With B1, the “Specific OTA detoxification activities in % compared to the enzyme of SEQ ID NO: 1, pH 7.5” value amounted to 59%.

Regarding B2, the “Specific OTA detoxification activities in % compared to the enzyme of SEQ ID NO: 1, pH 7.5” value was found to be 100%.

As to B3, the “Specific OTA detoxification activities in % compared to the enzyme of SEQ ID NO: 1, pH 7.5” value was found to be 17%.

For the molecule B4, the “Specific OTA detoxification activities in % compared to the enzyme of SEQ ID NO: 1, pH 7.5” value was found to be 54%.

As for B5, the “Specific OTA detoxification activities in % compared to the enzyme of SEQ ID NO: 1, pH 7.5” value is reported as 50%.

In the case of B6, the “Specific OTA detoxification activities in % compared to the enzyme of SEQ ID NO: 1, pH 7.5” value turned out to be 76%.

In the case of B7, the “Specific OTA detoxification activities in % compared to the enzyme of SEQ ID NO: 1, pH 7.5” value was determined as 85%.

With B8, the “Specific OTA detoxification activities in % compared to the enzyme of SEQ ID NO: 1, pH 7.5” value is reported as 39%.

B9: the “Specific OTA detoxification activities in % compared to the enzyme of SEQ ID NO: 1, pH 7.5” value was found to be 105%.

Take B10: the “Specific OTA detoxification activities in % compared to the enzyme of SEQ ID NO: 1, pH 7.5” value was determined as 50%.

Turning to B11, the “Specific OTA detoxification activities in % compared to the enzyme of SEQ ID NO: 1, pH 7.5” value was determined as 89%.

With B12, the “Specific OTA detoxification activities in % compared to the enzyme of SEQ ID NO: 1, pH 7.5” value turned out to be 106%.

With B13, the “Specific OTA detoxification activities in % compared to the enzyme of SEQ ID NO: 1, pH 7.5” value amounted to 86%.

Consider B14, for which the “Specific OTA detoxification activities in % compared to the enzyme of SEQ ID NO: 1, pH 7.5” value amounted to 31%.

Regarding B15, the “Specific OTA detoxification activities in % compared to the enzyme of SEQ ID NO: 1, pH 7.5” value amounted to 23%.

As for B16, the “Specific OTA detoxification activities in % compared to the enzyme of SEQ ID NO: 1, pH 7.5” value is recorded as 81%.

In the case of B17, the “Specific OTA detoxification activities in % compared to the enzyme of SEQ ID NO: 1, pH 7.5” value worked out at 91%.

On to B18, for which the “Specific OTA detoxification activities in % compared to the enzyme of SEQ ID NO: 1, pH 7.5” value was found to be 87%.

Take B19: the “Specific OTA detoxification activities in % compared to the enzyme of SEQ ID NO: 1, pH 7.5” value worked out at 21%.

For the molecule B20, the “Specific OTA detoxification activities in % compared to the enzyme of SEQ ID NO: 1, pH 7.5” value was determined as 101%.

Regarding B21, the “Specific OTA detoxification activities in % compared to the enzyme of SEQ ID NO: 1, pH 7.5” value amounted to 100%.

Turning to B22, the “Specific OTA detoxification activities in % compared to the enzyme of SEQ ID NO: 1, pH 7.5” value was 95%.

B23: the “Specific OTA detoxification activities in % compared to the enzyme of SEQ ID NO: 1, pH 7.5” value is 41%.

A short description of another series: Enzymatic activity comparison: activity remaining after 65° C. for 10 min at pH 6.0, relative to SEQ ID NO: 1.
Details: not given
The class given is physicochemical. Here is the method:
To compare the temperature behavior and thermostability of selected enzymes to one another, enzyme was incubated at 65° C. for 10 min at pH 6.0. The enzymatic activity remaining after incubation was compared to the remaining activity of the enzyme of SEQ ID NO: 1 after incubation, the latter being set to 100%, see Table 16.
As to B1, the “Enzymatic activity remaining after incubation, compared to SEQ ID NO: 1 (set to 100%)” value is 37%.

For the molecule B2, the “Enzymatic activity remaining after incubation, compared to SEQ ID NO: 1 (set to 100%)” value is recorded as 32%.

In the case of B3, the “Enzymatic activity remaining after incubation, compared to SEQ ID NO: 1 (set to 100%)” value is reported as 33%.

For the molecule B4, the “Enzymatic activity remaining after incubation, compared to SEQ ID NO: 1 (set to 100%)” value stood at 41%.

With B5, the “Enzymatic activity remaining after incubation, compared to SEQ ID NO: 1 (set to 100%)” value amounted to 13%.

Regarding B6, the “Enzymatic activity remaining after incubation, compared to SEQ ID NO: 1 (set to 100%)” value was found to be 34%.

For B7, the “Enzymatic activity remaining after incubation, compared to SEQ ID NO: 1 (set to 100%)” value stood at 25%.

In the case of B8, the “Enzymatic activity remaining after incubation, compared to SEQ ID NO: 1 (set to 100%)” value is 28%.

For B9, the “Enzymatic activity remaining after incubation, compared to SEQ ID NO: 1 (set to 100%)” value came to 28%.

On to B10, for which the “Enzymatic activity remaining after incubation, compared to SEQ ID NO: 1 (set to 100%)” value was 31%.

As for B11, the “Enzymatic activity remaining after incubation, compared to SEQ ID NO: 1 (set to 100%)” value stood at 27%.

Take B12: the “Enzymatic activity remaining after incubation, compared to SEQ ID NO: 1 (set to 100%)” value worked out at 40%.

With B13, the “Enzymatic activity remaining after incubation, compared to SEQ ID NO: 1 (set to 100%)” value is 41%.

As for B14, the “Enzymatic activity remaining after incubation, compared to SEQ ID NO: 1 (set to 100%)” value was 90%.

As for B15, the “Enzymatic activity remaining after incubation, compared to SEQ ID NO: 1 (set to 100%)” value is on record as 13%.

Take B16: the “Enzymatic activity remaining after incubation, compared to SEQ ID NO: 1 (set to 100%)” value amounted to 27%.

With B17, the “Enzymatic activity remaining after incubation, compared to SEQ ID NO: 1 (set to 100%)” value is recorded as 38%.

For B18, the “Enzymatic activity remaining after incubation, compared to SEQ ID NO: 1 (set to 100%)” value was found to be 22%.

As to B19, the “Enzymatic activity remaining after incubation, compared to SEQ ID NO: 1 (set to 100%)” value is 63%.

Take B20: the “Enzymatic activity remaining after incubation, compared to SEQ ID NO: 1 (set to 100%)” value is 36%.

With B21, the “Enzymatic activity remaining after incubation, compared to SEQ ID NO: 1 (set to 100%)” value stood at 53%.

In the case of B22, the “Enzymatic activity remaining after incubation, compared to SEQ ID NO: 1 (set to 100%)” value is given as 60%.

Turning to B23, the “Enzymatic activity remaining after incubation, compared to SEQ ID NO: 1 (set to 100%)” value came out at 28%.

(Values after patent US20240352438A1, “MEANS AND METHODS FOR DETOXIFYING OCHRATOXIN A” (DSM Austria GmbH, priority 2021, published 2024).)
